# Source: patent publication US8512964
# Chain of apoER2 (Q14114 whole entry): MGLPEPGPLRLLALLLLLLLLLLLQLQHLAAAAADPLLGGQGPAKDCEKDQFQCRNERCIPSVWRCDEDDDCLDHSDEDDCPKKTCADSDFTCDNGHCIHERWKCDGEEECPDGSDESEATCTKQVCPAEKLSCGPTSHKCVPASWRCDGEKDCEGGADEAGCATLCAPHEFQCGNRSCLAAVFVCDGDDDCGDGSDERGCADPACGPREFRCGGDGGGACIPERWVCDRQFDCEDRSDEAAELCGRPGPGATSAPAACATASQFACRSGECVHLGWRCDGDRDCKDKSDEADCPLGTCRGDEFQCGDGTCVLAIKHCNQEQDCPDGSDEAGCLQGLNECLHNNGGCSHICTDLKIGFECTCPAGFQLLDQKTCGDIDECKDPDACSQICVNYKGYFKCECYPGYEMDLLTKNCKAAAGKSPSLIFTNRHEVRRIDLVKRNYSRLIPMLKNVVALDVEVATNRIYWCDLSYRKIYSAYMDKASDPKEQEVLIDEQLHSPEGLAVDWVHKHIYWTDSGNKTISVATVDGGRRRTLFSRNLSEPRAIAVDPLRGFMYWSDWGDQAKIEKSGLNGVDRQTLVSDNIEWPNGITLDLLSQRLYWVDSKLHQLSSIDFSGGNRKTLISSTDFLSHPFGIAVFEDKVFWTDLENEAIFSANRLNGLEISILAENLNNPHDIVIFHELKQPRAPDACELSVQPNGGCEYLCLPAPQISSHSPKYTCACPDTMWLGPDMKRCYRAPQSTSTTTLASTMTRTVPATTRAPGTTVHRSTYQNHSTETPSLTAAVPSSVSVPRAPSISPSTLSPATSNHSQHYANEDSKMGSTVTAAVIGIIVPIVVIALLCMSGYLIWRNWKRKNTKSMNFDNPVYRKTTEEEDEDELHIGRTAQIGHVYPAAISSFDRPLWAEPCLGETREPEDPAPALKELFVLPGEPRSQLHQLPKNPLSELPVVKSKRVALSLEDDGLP
protein,measurement,setting,value
myosin light chain interacting protein (Mylip) (protein) MLCYVTRPDAVLMEVEVEAKANGEDCLNQVCRRLGIIEVDYFGLQFTGSKGESLWLNLRNRISQQMDGLAPYRLKLRVKFFVEPHLILQEQTRHIFFLHIKEALLAGHLLCSPEQAVELSALLAQTKFGDYNQNTAKYNYEELCAKELSSATLNSIVAKHKELEGTSQASAEYQVLQIVSAMENYGIEWHSVRDSEGQKLLIGVGPEGISICKDDFSPINRIAYPVVQMATQSGKNVYLTVTKESGNSIVLLFKMISTRAASGLYRAITETHAFYRCDTVTSAVMMQYSRDLKGHLASLFLNENINLGKKYVFDIKRTSKEVYDHARRALYNAGVVDLVSRNNQSPSHSPLKSSESSMNCSSCEGLSCQQTRVLQEKLRKLKEAMLCMVCCEEEINSTFCPCGHTVCCESCAAQLQSCPVCRSRVEHVQHVYLPTHTSLLNLTVI,degradation in the cotransfection assay,LRP-1,"Several other members, including LRP-1, LRP-1b and the EGFR receptor are not"
same,degradation in the cotransfection assay,VLDLR,"the VLDLR and apoER2, are both capable of being degraded by Idol in our cotransfection assay"
same,degradation in the cotransfection assay,LRP-1b,"Several other members, including LRP-1, LRP-1b and the EGFR receptor are not"
same,degradation in the cotransfection assay,apoER2,"the VLDLR and apoER2, are both capable of being degraded by Idol in our cotransfection assay"
same,degradation in the cotransfection assay,EGFR receptor,"Several other members, including LRP-1, LRP-1b and the EGFR receptor are not"
